1 molecule from PMC11702627 can be followed below.

The experiment has as its target T1, WT 4Ig-B7-H3-meGFP (and WT 4Ig-B7-H3-mCherry as the second copy) (human), Q5ZPR3.
T1 chain: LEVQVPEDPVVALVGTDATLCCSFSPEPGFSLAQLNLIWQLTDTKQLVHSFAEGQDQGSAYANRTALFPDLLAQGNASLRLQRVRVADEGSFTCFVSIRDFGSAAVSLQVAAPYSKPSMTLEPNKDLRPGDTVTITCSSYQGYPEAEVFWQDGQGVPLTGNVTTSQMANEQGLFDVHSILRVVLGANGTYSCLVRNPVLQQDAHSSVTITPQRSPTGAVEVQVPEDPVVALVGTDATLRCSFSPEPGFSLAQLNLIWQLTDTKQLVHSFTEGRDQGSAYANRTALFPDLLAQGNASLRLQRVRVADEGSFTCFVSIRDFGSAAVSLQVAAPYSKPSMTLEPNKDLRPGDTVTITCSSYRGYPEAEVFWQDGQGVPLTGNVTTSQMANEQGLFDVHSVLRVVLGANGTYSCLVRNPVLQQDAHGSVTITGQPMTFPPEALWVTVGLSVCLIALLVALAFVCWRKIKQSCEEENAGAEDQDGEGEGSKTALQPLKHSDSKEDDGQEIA
The experiment can be described thus: FRET or BRET. Conditions: remark: other sources report otherwise. A general note: BRET reads energy transfer from a luciferase to a nearby fluorophore.

B1: WT 4Ig-B7-H3-meGFP (and WT 4Ig-B7-H3-mCherry as the second copy), Q5ZPR3 29-534 (natural protein)
chain: T1 chain
Molecule B1 returned an abundance of dimeric complexes (1.3 ns lifetime population) of 65%; a dimeric abundance (with MBCD 0.1 ug, 10 minutes) of 26%; a dimeric abundance (without MBCD) of 48%; a dimeric lifetime abundance (with Vector-mCherry) of 56%.
